In doi:10.1101/2022.05.31.494111:
Where two headings read alike, the source gives them in different places.

How the values were obtained:
[1] = biological target: minimal CrIFT81_(460-533)/CrIFT74_(460-532) complex (Chlamydomonas reinhardtii) (UniProt Q68RJ5)
[2] = biological target: Chlamydomonas reinhardtii RabL2, wild type (Chlamydomonas reinhardtii); assay: ITC
[3] = biological target: Chlamydomonas reinhardtii RabL2, wild type (Chlamydomonas reinhardtii); assay: ITC; remark: listed apart in the source
[4] = biological target: CrIFT81_(152-C)/74_(150-C)/27/25_(1-136) complex (Chlamydomonas reinhardtii) (UniProt Q68RJ5); assay: ITC
Chain of CrIFT81_(152-C)/74_(150-C)/27/25_(1-136) complex (Chlamydomonas reinhardtii) (Q68RJ5 152-683, chain 1 of 4): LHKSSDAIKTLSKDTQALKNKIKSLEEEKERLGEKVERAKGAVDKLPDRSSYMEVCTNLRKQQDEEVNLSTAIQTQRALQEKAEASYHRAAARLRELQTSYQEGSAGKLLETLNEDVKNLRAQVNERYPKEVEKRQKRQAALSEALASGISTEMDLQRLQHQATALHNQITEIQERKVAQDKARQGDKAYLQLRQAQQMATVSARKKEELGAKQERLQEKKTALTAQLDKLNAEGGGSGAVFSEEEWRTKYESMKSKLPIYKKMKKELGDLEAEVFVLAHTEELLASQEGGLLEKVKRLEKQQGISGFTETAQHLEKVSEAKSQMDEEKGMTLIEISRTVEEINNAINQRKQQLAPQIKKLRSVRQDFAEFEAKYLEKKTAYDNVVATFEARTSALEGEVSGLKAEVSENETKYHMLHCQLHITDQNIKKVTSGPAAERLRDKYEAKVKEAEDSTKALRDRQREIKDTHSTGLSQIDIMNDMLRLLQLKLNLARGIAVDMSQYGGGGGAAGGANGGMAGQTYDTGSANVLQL
Chain of CrIFT81_(152-C)/74_(150-C)/27/25_(1-136) complex (Chlamydomonas reinhardtii) (Q6RCE1 150-641, chain 2 of 4, further chain): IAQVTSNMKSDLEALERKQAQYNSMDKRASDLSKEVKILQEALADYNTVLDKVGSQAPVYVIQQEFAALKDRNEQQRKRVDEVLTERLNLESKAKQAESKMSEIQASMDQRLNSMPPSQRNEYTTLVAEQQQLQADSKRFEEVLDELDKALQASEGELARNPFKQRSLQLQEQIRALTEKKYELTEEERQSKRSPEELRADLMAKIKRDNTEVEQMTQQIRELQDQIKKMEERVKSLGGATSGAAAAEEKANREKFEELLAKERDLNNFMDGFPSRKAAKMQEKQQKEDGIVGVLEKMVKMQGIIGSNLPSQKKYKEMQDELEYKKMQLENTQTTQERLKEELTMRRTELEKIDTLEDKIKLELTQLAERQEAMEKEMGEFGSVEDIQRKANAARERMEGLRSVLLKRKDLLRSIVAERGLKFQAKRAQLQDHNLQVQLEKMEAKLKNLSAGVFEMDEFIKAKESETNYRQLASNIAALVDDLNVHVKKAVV
Chain of CrIFT81_(152-C)/74_(150-C)/27/25_(1-136) complex (Chlamydomonas reinhardtii) (A8HN58 whole entry, chain 3 of 4, further chain): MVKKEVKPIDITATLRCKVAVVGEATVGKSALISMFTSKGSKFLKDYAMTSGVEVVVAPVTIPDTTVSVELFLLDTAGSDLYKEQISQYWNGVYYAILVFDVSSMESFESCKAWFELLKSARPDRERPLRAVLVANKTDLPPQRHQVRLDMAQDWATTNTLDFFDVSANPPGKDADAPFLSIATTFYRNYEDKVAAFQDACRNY
Chain of CrIFT81_(152-C)/74_(150-C)/27/25_(1-136) complex (Chlamydomonas reinhardtii) (B8LIX8 1-136, chain 4 of 4, further chain): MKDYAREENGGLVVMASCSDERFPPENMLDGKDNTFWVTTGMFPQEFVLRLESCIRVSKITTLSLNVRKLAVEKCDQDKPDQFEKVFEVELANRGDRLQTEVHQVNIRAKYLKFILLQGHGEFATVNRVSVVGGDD

Chain of minimal CrIFT81_(460-533)/CrIFT74_(460-532) complex (Chlamydomonas reinhardtii) (Q68RJ5 460-533, chain 1 of 2): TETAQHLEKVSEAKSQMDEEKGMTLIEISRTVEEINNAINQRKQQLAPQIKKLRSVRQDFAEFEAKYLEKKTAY
Chain of minimal CrIFT81_(460-533)/CrIFT74_(460-532) complex (Chlamydomonas reinhardtii) (Q6RCE1 460-532, chain 2 of 2, further chain): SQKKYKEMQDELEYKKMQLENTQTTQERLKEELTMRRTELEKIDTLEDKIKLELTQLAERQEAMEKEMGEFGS

Q: How did the GTPase rate of RabL2 with IFT81 (460-533)/74 (460-532) against RabL2 alone [1] turn out when “Chlamydomonas reinhardtii RabL2, wild type (natural protein)” was run?
A: 5 fold

Q: What does the source list for “Chlamydomonas reinhardtii CEP19 residues 1-208 (domain or fragment)”?
A: Kd [2]: 280 nM; Kd [3]: 12700 nM

Q: How did the Kd [4] turn out when “Chlamydomonas reinhardtii RabL2 Q83L (GTP-locked mutant) (natural protein)” was run?
A: 590 nM
